Source: PMC4016012, “Successful Conversion of the Bacillus subtilis BirA Group II Biotin Protein Ligase into a Group I Ligase” (PLoS ONE, 2014)

T1: BirA (biotin protein ligase, Group II) (Bacillus subtilis 168) (UniProt P0CI75)
T1 sequence: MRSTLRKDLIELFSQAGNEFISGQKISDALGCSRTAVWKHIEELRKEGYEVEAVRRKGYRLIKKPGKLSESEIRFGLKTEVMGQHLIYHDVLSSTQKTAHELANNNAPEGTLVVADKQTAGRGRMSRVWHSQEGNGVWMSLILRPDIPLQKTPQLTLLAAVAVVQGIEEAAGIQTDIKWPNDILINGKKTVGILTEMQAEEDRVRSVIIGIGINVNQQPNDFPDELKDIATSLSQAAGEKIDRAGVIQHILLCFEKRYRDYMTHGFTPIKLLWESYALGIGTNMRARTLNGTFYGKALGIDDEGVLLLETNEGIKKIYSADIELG

B1: B. subtilis N-terminally hexahistidine-tagged BirA (enzyme, Bacillus subtilis, UniProt P0CI75 1-325, looked up)
chain: T1 sequence
notes: 325 residues by the names of the constructs (64-325 etc.); no step that removes the tag is described; The vector is pET19b, whose own tag may be longer than six histidines and is followed by a linker (surmise); also called wild type BirA; B. subtilis BirA; source: E. coli BL21 (λ DE3) with pSKH001, purified (Ni NTA)
B2: B. subtilis N-terminally hexahistidine-tagged Δ2-65 BirA (domain or fragment, Bacillus subtilis, UniProt P0CI75 66-325, looked up)
chain: GKLSESEIRFGLKTEVMGQHLIYHDVLSSTQKTAHELANNNAPEGTLVVADKQTAGRGRMSRVWHSQEGNGVWMSLILRPDIPLQKTPQLTLLAAVAVVQGIEEAAGIQTDIKWPNDILINGKKTVGILTEMQAEEDRVRSVIIGIGINVNQQPNDFPDELKDIATSLSQAAGEKIDRAGVIQHILLCFEKRYRDYMTHGFTPIKLLWESYALGIGTNMRARTLNGTFYGKALGIDDEGVLLLETNEGIKKIYSADIELG
notes: no step that removes the tag is described; Primer SKH047 (BirA 66-325 NdeI F) reads ATGGGAAAACTCAGTGAAAGC, i.e. M-GKLSES; also called BirA 66-325; Δ2-66 BirA (so named in the methods); source: E. coli BL21 (λ DE3) with pSKH020, purified (Ni NTA)

These molecules were tested against T1, BirA (biotin protein ligase, Group II) (Bacillus subtilis 168) (assay: EMSA). Details: 50 mM Tris-HCl pH 8.0, 1 mM EDTA, 50 mM NaCl, 10% glycerol, 40 nM DNA, 15.6-500 nM BirA, 1 mM ATP, 1 mM MgCl2, 1 uM biotin; room temperature 30 min; 6% gel in ….

| Molecule | binding |
| --- | --- |
| CCTTTCACTGATAACTGAAGAACGTGTAGCGCTTCTCACCTAAATTGTTAACCAATTATATTCAAAGGTTAACAATTAGAATATATTATTCTCTCCTGTTTCTGTCAATAGAAGAAAGGATC (double strand) [B. subtilis bioO (bioWAFDBI operator)] | binds |
| GGGGCTTCTCCAAAACGTGTTTTTTGTTGTTAATTCGGTGTAGACTTGTAAACCTAAATCTTTTCAATTTGGTTTACAAGTCGATTATGACAACGGACGATCTTGCCTTTGACCAACGCCATATC (double strand) [E. coli bioO] | binds more weakly |
| ATTCAAAGGTTAACAATTAGAATATATTATTCTCTCCTGTTTCTGTCAATAGAAGAAAGGATCGATTTATGGCAGTTGGTTAAAAGGAAACAAAAAGACCGTTTTCACACAAAACGGTCTTTTTC (double strand) [B. subtilis bioO half site] | no binding |
| CCCTTAGGTTGACATACACAATCATAGAGTAATAAAGAACAAAAAGATTGTCAACATGATTTTAAATTAGGTTAACAAAAAGGAGGCCCATATGTATTTCGGAAAAACAAGACAGTCCGATCAAT (double strand) [yuiG operator] | binds |
| CCAAAAAGTAATCAAATATGGTTATACAATAAATGCAGGTAATTATTATGTCAACTGATTTTTAATTTAAGTTTACATAATGAACGCAAAAAAACCGGCCGTATGGCAGACCGGTTTTTGATGGT (double strand) [yhfU operator] | binds |
| AACGATCGGGATTTCCATTTTCATCGATTCCAAAATGGCTACCTCCTGGCCCTTTTCGATTTGGTCGCCGGCTTTGACGTGGACTTTCCACAGGTTTCCTGCCATTTGTATGCTAACCGTCATGC (double strand) [non-operator DNA (yngHB/blap internal fragment)] | no binding |

Molecular target: the molecule itself
Test: cross-linking; purified BirA 30 µM in 50 mM HEPES pH 7.5, 500 mM NaCl, 0.1 mM TCEP, 5% glycerol; with biotin (0.1 mM) and ATP (0.1 mM), room temperature 30 min; EGS 0.125-0.5 mM, room temperature 30 min; SDS-PAGE on 4-20% gels
Details: not given

| Molecule | stoichiometry N |
| --- | --- |
| B1 | 2 |
| B2 | 2 |
